T1: human LAG-3 domain 1-2 Fc fusion, point mutation #2 Q41A (human, UniProt P18627 23-266)
T1 construct: not shown: human IgG1 Fc, AA P101-K330
T1 sequence: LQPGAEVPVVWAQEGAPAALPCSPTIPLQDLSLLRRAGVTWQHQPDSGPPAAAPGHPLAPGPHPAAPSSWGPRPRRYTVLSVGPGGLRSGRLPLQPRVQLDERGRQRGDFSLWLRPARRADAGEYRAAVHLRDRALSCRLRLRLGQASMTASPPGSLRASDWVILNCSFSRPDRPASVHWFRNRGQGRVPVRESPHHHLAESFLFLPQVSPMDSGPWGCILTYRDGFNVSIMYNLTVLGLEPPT

T2: human LAG-3 domain 1-2 Fc fusion, point mutation #32 H85A (human, UniProt P18627 23-266)
T2 construct: not shown: human IgG1 Fc, AA P101-K330
T2 sequence: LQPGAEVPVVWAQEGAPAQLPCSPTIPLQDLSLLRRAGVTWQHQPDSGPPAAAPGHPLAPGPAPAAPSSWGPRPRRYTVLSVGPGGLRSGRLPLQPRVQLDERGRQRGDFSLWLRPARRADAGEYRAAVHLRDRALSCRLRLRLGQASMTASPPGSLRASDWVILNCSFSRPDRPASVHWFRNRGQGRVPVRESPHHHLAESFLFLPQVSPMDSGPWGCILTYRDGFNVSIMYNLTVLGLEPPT

T3: human LAG-3 domain 1-2 Fc fusion, point mutation #36 P89A (human, UniProt P18627 23-266)
T3 construct: not shown: human IgG1 Fc, AA P101-K330
T3 sequence: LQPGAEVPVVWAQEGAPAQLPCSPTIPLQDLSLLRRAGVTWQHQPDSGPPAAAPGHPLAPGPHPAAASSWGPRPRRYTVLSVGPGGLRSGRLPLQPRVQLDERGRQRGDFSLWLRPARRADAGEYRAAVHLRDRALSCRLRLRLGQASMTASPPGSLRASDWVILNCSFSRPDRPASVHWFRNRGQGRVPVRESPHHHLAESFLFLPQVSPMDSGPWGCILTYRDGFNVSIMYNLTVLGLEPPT

T4: human LAG-3 domain 1-2 Fc fusion, point mutation #77 R148A (human, UniProt P18627 23-266)
T4 construct: not shown: human IgG1 Fc, AA P101-K330
T4 sequence: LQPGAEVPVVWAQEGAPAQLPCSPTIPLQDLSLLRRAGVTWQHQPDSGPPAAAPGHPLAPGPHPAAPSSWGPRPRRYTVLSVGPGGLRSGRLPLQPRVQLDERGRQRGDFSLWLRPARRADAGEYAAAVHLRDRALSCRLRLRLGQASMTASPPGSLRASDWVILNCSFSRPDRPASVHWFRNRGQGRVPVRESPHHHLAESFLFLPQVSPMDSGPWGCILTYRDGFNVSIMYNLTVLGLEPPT

T5: human LAG-3 domain 1-2 Fc fusion, point mutation #19 D68A (human, UniProt P18627 23-266)
T5 construct: not shown: human IgG1 Fc, AA P101-K330
T5 sequence: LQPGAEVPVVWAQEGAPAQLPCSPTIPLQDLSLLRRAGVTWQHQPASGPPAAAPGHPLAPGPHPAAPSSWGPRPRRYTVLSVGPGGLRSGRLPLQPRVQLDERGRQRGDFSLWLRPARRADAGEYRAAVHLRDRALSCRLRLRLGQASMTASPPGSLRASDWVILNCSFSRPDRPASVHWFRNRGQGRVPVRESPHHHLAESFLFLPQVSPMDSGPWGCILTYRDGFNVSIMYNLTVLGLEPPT

T6: human LAG-3 domain 1-2 Fc fusion, point mutation #39 W92A (human, UniProt P18627 23-266)
T6 construct: not shown: human IgG1 Fc, AA P101-K330
T6 sequence: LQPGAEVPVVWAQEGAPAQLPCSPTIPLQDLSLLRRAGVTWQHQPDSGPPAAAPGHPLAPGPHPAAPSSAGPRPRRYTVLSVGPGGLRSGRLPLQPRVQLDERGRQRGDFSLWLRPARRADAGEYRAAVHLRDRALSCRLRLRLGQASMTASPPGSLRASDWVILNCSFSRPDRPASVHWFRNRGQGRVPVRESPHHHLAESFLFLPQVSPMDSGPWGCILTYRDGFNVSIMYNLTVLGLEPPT

T7: human LAG-3 domain 1-2 Fc fusion, point mutation #24 G77A (human, UniProt P18627 23-266)
T7 construct: not shown: human IgG1 Fc, AA P101-K330
T7 sequence: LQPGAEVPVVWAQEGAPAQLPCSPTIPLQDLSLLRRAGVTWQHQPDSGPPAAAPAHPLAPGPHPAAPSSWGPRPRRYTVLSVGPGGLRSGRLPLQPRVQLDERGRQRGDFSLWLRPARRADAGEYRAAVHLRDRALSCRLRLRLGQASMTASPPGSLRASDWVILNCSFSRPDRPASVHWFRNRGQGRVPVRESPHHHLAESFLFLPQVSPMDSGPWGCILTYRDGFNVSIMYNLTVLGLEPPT

T8: human LAG-3 domain 1-2 Fc fusion, point mutation #15 Q64A (human, UniProt P18627 23-266)
T8 construct: not shown: human IgG1 Fc, AA P101-K330
T8 sequence: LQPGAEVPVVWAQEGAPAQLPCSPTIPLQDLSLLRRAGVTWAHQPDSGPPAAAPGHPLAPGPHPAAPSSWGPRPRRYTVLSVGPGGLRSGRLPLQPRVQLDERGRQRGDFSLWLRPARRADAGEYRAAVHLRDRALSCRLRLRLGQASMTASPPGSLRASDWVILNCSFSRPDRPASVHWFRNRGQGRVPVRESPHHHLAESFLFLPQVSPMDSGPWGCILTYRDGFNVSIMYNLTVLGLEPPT

T9: human LAG-3 domain 1-2 Fc fusion, point mutation #20 A73S (human, UniProt P18627 23-266)
T9 construct: not shown: human IgG1 Fc, AA P101-K330
T9 sequence: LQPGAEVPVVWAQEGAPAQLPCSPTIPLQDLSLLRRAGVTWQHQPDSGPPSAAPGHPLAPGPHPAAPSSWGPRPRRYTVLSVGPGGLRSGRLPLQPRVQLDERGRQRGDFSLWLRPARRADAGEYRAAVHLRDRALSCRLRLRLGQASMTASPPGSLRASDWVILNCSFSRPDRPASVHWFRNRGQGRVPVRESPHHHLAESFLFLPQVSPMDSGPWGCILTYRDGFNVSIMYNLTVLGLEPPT


What was measured:
Test in all cases: SPR, Fab over captured mutant LAG-3-Fc;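 also: fc fusion variants captured on anti-human IgG Fc sensor, Fab injected with association then dissociation phases, KD obtained from Langmuir one-to-one fit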
[1] = biological target: T1, human LAG-3 domain 1-2 Fc fusion, point …
Description: (§1) The LAG-3 fusion proteins were immobilized onto a G-a-hu-IgG Fc SensEye® (Ssens BV, The Netherlands) for 15 minutes using a Continuous Flow Microspotter (CFM, Wasatch Microfluidics, Salt Lake City, US). After spotting, the SensEye® was positioned in an IBIS MX96 biosensor and captured proteins were evaluated for binding affinity. […] Fab association was performed for 15 minutes and antigen dissociation was performed for 15 minutes. The recorded binding responses were fitted to a simple Langmuir 1:1 binding model with Scrubber 2 software for calculation of the on-rate (kon or ka), off-rate (koff or kd) and affinity (KD) constants.

[2] = biological target: T2, human LAG-3 domain 1-2 Fc fusion, point …
Description: as §1

[3] = biological target: T3, human LAG-3 domain 1-2 Fc fusion, point …
Description: as §1

[4] = biological target: T4, human LAG-3 domain 1-2 Fc fusion, point …
Description: as §1

[5] = biological target: T5, human LAG-3 domain 1-2 Fc fusion, point …
Description: as §1

[6] = biological target: T6, human LAG-3 domain 1-2 Fc fusion, point …
Description: as §1

[7] = biological target: T7, human LAG-3 domain 1-2 Fc fusion, point …
Description: as §1

[8] = biological target: T8, human LAG-3 domain 1-2 Fc fusion, point …
Description: as §1

[9] = biological target: T9, human LAG-3 domain 1-2 Fc fusion, point …
Description: as §1

binding result [1]	KD mutant/KD wild type [2]	KD mutant/KD wild type [3]	binding result [4]	binding result [5]	KD mutant/KD wild type [6]	KD mutant/KD wild type [7]	binding result [8]	KD mutant/KD wild type [9]	KD mutant/KD wild type [1]	KD mutant/KD wild type [4]	KD mutant/KD wild type [5]	binding result [6]	KD mutant/KD wild type [8]	Binder
no binding (tested: 300 nM)	0.7 fold	0.8 fold	no binding (tested: 300 nM)	no binding (tested: 300 nM)	1 fold	0.7 fold	no binding (tested: 300 nM)	0.6 fold						Fab fragment of antibody 15572 (Fab, V domains shown, not shown: a dimerising Fc or GST, monomeric Fab made by GingisKHAN digestion of the IgG1) VH: QLQLQESGPGLVKPSETLSLTCTVSGDSISSSSYYWGWIRQPPGKGLEWIGSIFYSGNTYYNPSLKSRVTISVDTSKNQFSLKLSSVTAADTAVYYCAREDDFLTDYYGAFDIWGQGTMVTVSS VL: not shown
	7.2 fold	14.2 fold				1 fold		0.7 fold	3.4 fold	2.9 fold	3.4 fold	no binding (tested: 300 nM)	2.9 fold	Fab fragment of antibody 15532 (Fab, V domains shown, not shown: a dimerising Fc or GST, monomeric Fab made by GingisKHAN digestion of the IgG1) VH: QVQLQQWGAGLLRPSETLSLTCAVYGESFSGYYWNWIRQPPGKGLEWIGEINHSGSTNYNPSLKSRVTISVDTSKTQFSLKLSSVTAADTAVYYCARGWDLLDWNDYWNEYWGQGTLVTVSS VL: EIVLTQSPATLSLSPGERATLSCRASQSVSSYLAWYQQKPGQAPRLLIYDASNRATGIPARFSGSGSGTDFTLTISSLEPEDFAVYYCQQRSNWPLTFGGGTKVEIKR
no binding (tested: 300 nM)	0.8 fold	0.8 fold	no binding (tested: 300 nM)	no binding (tested: 300 nM)	3.6 fold	0.7 fold	no binding (tested: 300 nM)	0.6 fold						Fab fragment of antibody 15431 (Fab, V domains shown, not shown: a dimerising Fc or GST, monomeric Fab made by GingisKHAN digestion of the IgG1) VH: QVQLQQSGPGLVKPSQTLSLTCAISGDSVSSNSAAWNWIRQSPSRGLEWLGRTYYRSKWYNDYAVSVKSRITINPDTSKNQFSLQLNSVTPEDTAVYYCARDDDWNDFDYWGQGTLVTVSS VL: EIVLTQSPATLSLSPGERATLSCRASQSVSSYLAWYQQKPGQAPRLLIYDASNRATGIPARFSGSGSGTDFTLTISSLEPEDFAVYYCQQRSNWPLTFGGGTKVEIKR
	0.9 fold	0.9 fold			1.1 fold	0.8 fold		0.7 fold	0.7 fold	0.7 fold	0.6 fold		0.6 fold	Fab fragment of antibody 15011 (Fab, V domains shown, not shown: a dimerising Fc or GST, monomeric Fab made by GingisKHAN digestion of the IgG1) VH: EVQLLESGGGLVQPGGSLRLSCAASGFDFRSYAMMWVRQAPGKGLEWVGGINGEVGGSNTYYAPAVKGRATISRDNSKNTLYLQMNSLRAEDTAVYYCVKGAGACGICNDDIDAWGQGTLVTVSS VL: SYELTQDPAVSVALGQTVRITCSGAGSYAGSYYYGWHQQKPGQAPVTVIYDNDKRPSNIPDRFSGSSSGNTASLTITGAQAEDEADYYCGSTNDNDDGGLFGSGTKVTVLG

— US20220363757A1 (SYMPHOGEN A S, published 2022)
